The experiment addresses eIF3 from HeLa cells (human (endogenous in HeLa)) (UniProt Q14152). The experiment in a line: native gel or EMSA. A general note: A gel shift assay detects complexes by their altered migration in electrophoresis.

Concentration below which the complex starts to dissociate data for 1 substance are collected here from PMC3258154.

Turning to “eIF2 from HeLa cells (from UniProt P05198 1-315; P20042 1-333) (complex)”, the concentration below which the complex starts to dissociate lay within 200 to 300 nM.
